Legend:
[1] = molecular target: S366 peptide (STING peptide substrate with serine 366)
[2] = molecular target: A366 peptide (STING peptide substrate with alanine at 366)

Row | Protein | Activity (cpm) [1] [cpm] | Fold induction [1] [fold] | Activity (cpm) [2] [cpm]
1 | MEKK1 (protein) NQKCKEKMEAEEEEALAIAMAMSASQDALPIVPQLQVENGEDIIIIQQDTPETLPGHTKAKQPYREDTEWLKGQQIGLGAFSSCYQAQDVGTGTLMAVKQVTYVRNTSSEQEEVVEALREEIRMMSHLNHPNIIRMLGATCEKSNYNLFIEWMAGGSVAHLLSKYGAFKESVVINYTEQLLRGLSYLHENQIIHRDVKGANLLIDSTGQRLRIADFGAAARLASKGTGAGEFQGQLLGTIAFMAPEVLRGQQYGRSCDVWSVGCAIIEMACAKPPWNAEKHSNHLALIFKIASATTAPSIPSHLSPGLRDVALRCLELQPQDRPPSRELLKHPVFRTTW | 24900 | 2.2 | 11300
2 | RIPK5 (protein) FAASLRQLEAGHSGRLEKTEDLWLRVRKDHAPRLARLSLESCSLQDVLLHRKPKLGQELGRGQYGVVYLCDNWGGHFPCALKSVVPPDEKHWNDLALEFHYMRSLPKHERLVDLHGSVIDYNYGGGSSIAVLLIMERLHRDLYTGLKAGLTLETRLQIALDVVEGIRFLHSQGLVHRDIKLKNVLLDKQNRAKITDLGFCKPEAMMSGSIVGTPIHMAPELFTGKYDNSVDVYAFGILFWYICSGSVKLPEAFERCASKDHLWNNVRRGARPERLPVFDEECWQLMEACWDGDPLKRPLLGIVQPMLQGIMNRLCKSNSEQPNRGLDDST | 16000 | 12 | 1330
3 | PKCι (protein) MPTQRDSSTMSHTVAGGGSGDHSHQVRVKAYYRGDIMITHFEPSISFEGLCNEVRDMCSFDNEQLFTMKWIDEEGDPCTVSSQLELEEAFRLYELNKDSELLIHVFPCVPERPGMPCPGEDKSIYRRGARRWRKLYCANGHTFQAKRFNRRAHCAICTDRIWGLGRQGYKCINCKLLVHKKCHKLVTIECGRHSLPQEPVMPMDQSSMHSDHAQTVIPYNPSSHESLDQVGEEKEAMNTRESGKASSSLGLQDFDLLRVIGRGSYAKVLLVRLKKTDRIYAMKVVKKELVNDDEDIDWVQTEKHVFEQASNHPFLVGLHSCFQTESRLFFVIEYVNGGDLMFHMQRQRKLPEEHARFYSAEISLALNYLHERGIIYRDLKLDNVLLDSEGHIKLTDYGMCKEGLRPGDTTSTFCGTPNYIAPEILRGEDYGFSVDWWALGVLMFEMMAGRSPFDIVGSSDNPDQNTEDYLFQVILEKQIRIPRSLSVKAASVLKSFLNKDPKERLGCHPQTGFADIQGHPFFRNVDWDMMEQKQVVPPFKPNISGEFGLDNFDSQFTNEPVQLTPDDDDIVRKIDQSEFEGFEYINPLLMSAEECV | 12800 | 1.88 | 6810
4 | NEK2 (protein) MPSRAEDYEVLYTIGTGSYGRCQKIRRKSDGKILVWKELDYGSMTEAEKQMLVSEVNLLRELKHPNIVRYYDRIIDRTNTTLYIVMEYCEGGDLASVITKGTKERQYLDEEFVLRVMTQLTLALKECHRRSDGGHTVLHRDLKPANVFLDGKQNVKLGDFGLARILNHDTSFAKTFVGTPYYMSPEQMNRMSYNEKSDIWSLGCLLYELCALMPPFTAFSQKELAGKIREGKFRRIPYRYSDELNEIITRMLNLKDYHRPSVEEILENPLIADLVADEQRRNLERRGRQLGEPEKSQDSSPVLSELKLKEIQLQERERALKAREERLEQKEQELCVRERLAEDKLARAENLLKNYSLLKERKFLSLASNPELLNLPSSVIKKKVHFSGESKENIMRSENSESQLTSKSKCKDLKKRLHAAQLRAQALSDIEKNYQLKSRQILGMR | 162000 | 18.6 | 8700
5 | IRAK4 (protein) MNKPITPSTYVRCLNVGLIRKLSDFIDPQEGWKKLAVAIKKPSGDDRYNQFHIRRFEALLQTGKSPTSELLFDWGTTNCTVGDLVDLLIQNEFFAPASLLLPDAVPKTANTLPSKEAITVQQKQMPFCDKDRTLMTPVQNLEQSYMPPDSSSPENKSLEVSDTRFHSFSFYELKNVTNNFDERPISVGGNKMGEGGFGVVYKGYVNNTTVAVKKLAAMVDITTEELKQQFDQEIKVMAKCQHENLVELLGFSSDGDDLCLVYVYMPNGSLLDRLSCLDGTPPLSWHMRCKIAQGAANGINFLHENHHIHRDIKSANILLDEAFTAKISDFGLARASEKFAQTVMTSRIVGTTAYMAPEALRGEITPKSDIYSFGVVLLEIITGLPAVDEHREPQLLLDIKEEIEDEEKTIEDYIDKKMNDADSTSVEAMYSVASQCLHEKKNKRPDIKKVQQLLQEMTAS | 50400 | 6.77 | 7440
6 | NEK9 (protein) MSVLGEYERHCDSINSDFGSESGGCGDSSPGPSASQGPRAGGGAAEQEELHYIPIRVLGRGAFGEATLYRRTEDDSLVVWKEVDLTRLSEKERRDALNEIVILALLQHDNIIAYYNHFMDNTTLLIELEYCNGGNLYDKILRQKDKLFEEEMVVWYLFQIVSAVSCIHKAGILHRDIKTLNIFLTKANLIKLGDYGLAKKLNSEYSMAETLVGTPYYMSPELCQGVKYNFKSDIWAVGCVIFELLTLKRTFDATNPLNLCVKIVQGIRAMEVDSSQYSLELIQMVHSCLDQDPEQRPTADELLDRPLLRKRRREMEEKVTLLNAPTKRPRSSTVTEAPIAVVTSRTSEVYVWGGGKSTPQKLDVIKSGCSARQVCAGNTHFAVVTVEKELYTWVNMQGGTKLHGQLGHGDKASYRQPKHVEKLQGKAIRQVSCGDDFTVCVTDEGQLYAFGSDYYGCMGVDKVAGPEVLEPMQLNFFLSNPVEQVSCGDNHVVVLTRNKEVYSWGCGEYGRLGLDSEEDYYTPQKVDVPKALIIVAVQCGCDGTFLLTQSGKVLACGLNEFNKLGLNQCMSGIINHEAYHEVPYTTSFTLAKQLSFYKIRTIAPGKTHTAAIDERGRLLTFGCNKCGQLGVGNYKKRLGINLLGGPLGGKQVIRVSCGDEFTIAATDDNHIFAWGNGGNGRLAMTPTERPHGSDICTSWPRPIFGSLHHVPDLSCRGWHTILIVEKVLNSKTIRSNSSGLSIGTVFQSSSPGGGGGGGGGEEEDSQQESETPDPSGGFRGTMEADRGMEGLISPTEAMGNSNGASSSCPGWLRKELENAEFIPMPDSPSPLSAAFSESEKDTLPYEELQGLKVASEAPLEHKPQVEASSPRLNPAVTCAGKGTPLTPPACACSSLQVEVERLQGLVLKCLAEQQKLQQENLQIFTQLQKLNKKLEGGQQVGMHSKGTQTAKEEMEMDPKPDLDSDSWCLLGTDSCRPSL | 26300 | 3.77 | 6980
7 | IKKα (protein) MERPPGLRPGAGGPWEMRERLGTGGFGNVCLYQHRELDLKIAIKSCRLELSTKNRERWCHEIQIMKKLNHANVVKACDVPEELNILIHDVPLLAMEYCSGGDLRKLLNKPENCCGLKESQILSLLSDIGSGIRYLHENKIIHRDLKPENIVLQDVGGKIIHKIIDLGYAKDVDQGSLCTSFVGTLQYLAPELFENKPYTATVDYWSFGTMVFECIAGYRPFLHHLQPFTWHEKIKKKDPKCIFACEEMSGEVRFSSHLPQPNSLCSLVVEPMENWLQLMLNWDPQQRGGPVDLTLKQPRCFVLMDHILNLKIVHILNMTSAKIISFLLPPDESLHSLQSRIERETGINTGSQELLSETGISLDPRKPASQCVLDGVRGCDSYMVYLFDKSKTVYEGPFASRSLSDCVNYIVQDSKIQLPIIQLRKVWAEAVHYVSGLKEDYSRLFQGQRAAMLSLLRYNANLTKMKNTLISASQQLKAKLEFFHKSIQLDLERYSEQMTYGISSEKMLKAWKEMEEKAIHYAEVGVIGYLEDQIMSLHAEIMELQKSPYGRRQGDLMESLEQRAIDLYKQLKHRPSDHSYSDSTEMVKIIVHTVQSQDRVLKELFGHLSKLLGCKQKIIDLLPKVEVALSNIKEADNTVMFMQGKRQKEIWHLLKIACTQSSARSLVGSSLEGAVTPQTSAWLPPTSAEHDHSLSCVVTPQDGETSAQMIEENLNCLGHLSTIIHEANEEQGNSMMNLDWSWLTE | 6890 | 2.83 | 2430
